The values that follow come from article PMC9759335.

Where two headings read alike, the source gives them in different places.

Data set [1] in a line: aggregate area of transfected HeLa cells. Conditions: glycan lost; control: P0wt-EGFP.
Data set [2] in a line: EGFP fluorescence in transfected HeLa cells. Conditions: glycan lost; control: P0wt-EGFP.
The next data set can be described thus: HeLa adhesion assay. Conditions: glycan changed form; control: untreated P0D61N cells.
Data set [3] in a line: confocal EGFP imaging of HeLa cells. Conditions: glycan changed form; control: untreated cells, same construct.

As for “P0 D118N (Myelin Protein Zero mutant): D118N”, the localisation_or_trafficking result (N-glycosylation at N118) is reported as “no change”.

As for “P0 D61N (Myelin Protein Zero mutant): D61N”, the localisation_or_trafficking entry (N-glycosylation at N61) is listed as “decreases”.

Regarding “P0 D61N (Myelin Protein Zero mutant): 750 μM N-butyl-deoxynojirimycin (NB-DNJ) on HeLa cells expressing D61N”, where the note is “N-glycosylation at N61”, the localisation_or_trafficking entry is on record as “increases”.

“P0 D109N (Myelin Protein Zero mutant): D109N”: the localisation_or_trafficking entry (N-glycosylation at N109) was “decreases”.

Turning to “P0 K138N (Myelin Protein Zero mutant): K138N”, the localisation_or_trafficking entry (N-glycosylation at N138) was “decreases”.

On to “P0 D61N (mouse Mpz knock-in mutant): D61N (MpzD61N/− mice)”, for which the localisation_or_trafficking result (N-glycosylation at N61) was “changes”.

With “P0 D61N (mouse Mpz knock-in mutant): D61N (MpzD61N/+ mice)”, the expression_or_secretion result (N-glycosylation at N61) is “no change”.

B1: P0 (Myelin Protein Zero): N122S (protein)
parent chain: MAPGAPSSSPSPILAVLLFSSLVLSPAQAIVVYTDREVHGAVGSRVTLHCSFWSSEWVSDDISFTWRYQPEGGRDAISIFHYAKGQPYIDEVGTFKERIQWVGDPRWKDGSIVIHNLDYSDNGTFTCDVKNPPDIVGKTSQVTLYVFEKVPTRYGVVLGAVIGGVLGVVLLLLLLFYVVRYCWLRRQAALQRRLSAMEKGKLHKPGKDASKRGRQTPVLYAMLDHSRSTKAVSEKKAKGLGESRKDKK
B1: in data set [1], the “other: homophilic cell adhesion, percent_of_wt” value (from here on “other … percent_of_wt”) is recorded as “no change”. In addition, the localisation_or_trafficking entry in data set [2] is “no change”.

B2: P0 (Myelin Protein Zero): 750 μM NB-DNJ on P0D61N (protein)
parent chain: MAPGAPSSSPSPILAVLLFSSLVLSPAQAIVVYTDREVHGAVGSRVTLHCSFWSSEWVSDDISFTWRYQPEGGRDAISIFHYAKGQPYIDEVGTFKERIQWVGDPRWKDGSIVIHNLDYSDNGTFTCDVKNPPDIVGKTSQVTLYVFEKVPTRYGVVLGAVIGGVLGVVLLLLLLFYVVRYCWLRRQAALQRRLSAMEKGKLHKPGKDASKRGRQTPVLYAMLDHSRSTKAVSEKKAKGLGESRKDKK
Regarding B2, in “HeLa adhesion assay”, the “other: homophilic cell adhesion” value is “increases”.

B3: P0 (Myelin Protein Zero): T124M (protein)
parent chain: MAPGAPSSSPSPILAVLLFSSLVLSPAQAIVVYTDREVHGAVGSRVTLHCSFWSSEWVSDDISFTWRYQPEGGRDAISIFHYAKGQPYIDEVGTFKERIQWVGDPRWKDGSIVIHNLDYSDNGTFTCDVKNPPDIVGKTSQVTLYVFEKVPTRYGVVLGAVIGGVLGVVLLLLLLFYVVRYCWLRRQAALQRRLSAMEKGKLHKPGKDASKRGRQTPVLYAMLDHSRSTKAVSEKKAKGLGESRKDKK
In the case of B3, the “other … percent_of_wt” value in data set [1] is reported as “no change”. In addition, the localisation_or_trafficking entry in data set [2] is “no change”.

B4: P0 (Myelin Protein Zero): 750 μM NB-DNJ on P0wt (protein)
parent chain: MAPGAPSSSPSPILAVLLFSSLVLSPAQAIVVYTDREVHGAVGSRVTLHCSFWSSEWVSDDISFTWRYQPEGGRDAISIFHYAKGQPYIDEVGTFKERIQWVGDPRWKDGSIVIHNLDYSDNGTFTCDVKNPPDIVGKTSQVTLYVFEKVPTRYGVVLGAVIGGVLGVVLLLLLLFYVVRYCWLRRQAALQRRLSAMEKGKLHKPGKDASKRGRQTPVLYAMLDHSRSTKAVSEKKAKGLGESRKDKK
B4: in data set [3], the localisation_or_trafficking entry is “no change”.

B5: P0 (Myelin Protein Zero): T124A (protein)
parent chain: MAPGAPSSSPSPILAVLLFSSLVLSPAQAIVVYTDREVHGAVGSRVTLHCSFWSSEWVSDDISFTWRYQPEGGRDAISIFHYAKGQPYIDEVGTFKERIQWVGDPRWKDGSIVIHNLDYSDNGTFTCDVKNPPDIVGKTSQVTLYVFEKVPTRYGVVLGAVIGGVLGVVLLLLLLFYVVRYCWLRRQAALQRRLSAMEKGKLHKPGKDASKRGRQTPVLYAMLDHSRSTKAVSEKKAKGLGESRKDKK
Regarding B5, the “other … percent_of_wt” value in data set [1] was “no change”. In addition, in data set [2], the localisation_or_trafficking result was “no change”.

B6: P0 (Myelin Protein Zero): T124K (protein)
parent chain: MAPGAPSSSPSPILAVLLFSSLVLSPAQAIVVYTDREVHGAVGSRVTLHCSFWSSEWVSDDISFTWRYQPEGGRDAISIFHYAKGQPYIDEVGTFKERIQWVGDPRWKDGSIVIHNLDYSDNGTFTCDVKNPPDIVGKTSQVTLYVFEKVPTRYGVVLGAVIGGVLGVVLLLLLLFYVVRYCWLRRQAALQRRLSAMEKGKLHKPGKDASKRGRQTPVLYAMLDHSRSTKAVSEKKAKGLGESRKDKK
Turning to B6, in data set [2], the localisation_or_trafficking result is listed as “no change”.
